Laboratory results published in patent publication US8357523B2, “Beta-glucosidase variant enzymes and related polynucleotides” (Codexis, Inc., priority 2009, dated 2013).
Changes are numbered by the printed parent chain.

B1: 67 (protein)
chain: STAIAQEGAAPAAILHPEKWPRPATQRLIDPAVEKRVDALLKQLSVEEKVGQVIQGDIGTITPEDLRKYPLGSILAGGNSGPNGDDRAPPKEWLDLADAFYRVSLEKRPGHTPIPVLFGIDAVHGHGNIGSATIFPHNIALGATHDPELLRRIGEVTAVEMAATGIDWTFAPALSVVRDDRWGRTYEGFSEDPEIVAAYSAAIVEGVQGKFGSKDFMACGRIVASAKHFLADGGTDQGRDQGDARISEDELIRIHNAGYPPAIDAGVLTVMASFSSWQGIKHHGHKQLLTDVLKGQMGFNGFIVGDWNAHDQVPGCTKFNCPTSLIAGLDMYMAADSWKQLYENTLAQVKDGTIPMARLDDAVRRILRVKVLAGLFEKPAPKDRPGLPGLETLGSPEHRAVGREAVRKSLVLLKNDKGTLPLSPKARVLVAGDGADNIGKQSGGWTISWQGTGNRNDEFPGATSILGGIRDAVADAGGSVEFDVAGQYKTKPDVAIVVFGEEPYAEFQGDVETLEYQPDQKQDLALLKKLKDQGIPVVAVFLSGRPMWVNPELNASDAFVAAWLPGTEGGGVADVLFTDKAGKVQHDFAGKLSYSWPRTAAQTTVNRGDADYNPLFAYGYGLTYKDKSKVGTLPEESGVPAEARQNAGIYFRAGALRLPGRFL
B2: 68 (protein)
chain: B1 chain with C219I
B3: 69 (protein)
chain: B1 chain with C219T
B4: 70 (protein)
chain: B1 chain with C219L
B5: 71 (protein)
chain: B1 chain with A202L, C219P
B6: 72 (protein)
chain: B1 chain with V46F, C219P, I222A
B7: 73 (protein)
chain: B1 chain with C219P, I222V
B8: 73a (protein)
chain: B1 chain with T60Y, C219P
B9: 73b (protein)
chain: B1 chain with A202S, C219P
B10: 134 (protein)
chain: B1 chain with N128K, A143M, H145R, V159E, A173C, A201P, F211Y, C219V
B11: 136 (protein)
chain: STAIAQEGAAPAAILHPEKWPRPATQRLIDPAVEKRVDALLKQLSVEEKVGQVIQGDIGTITPEDLRKYPLGSILAGGNSGPNGDDRAPPKEWLDLADAFYRVSLEKRPGHTPIPVLFGIDAVHGHGKIGSATIFPHNIALGMTRDPELLRRIGEVTAQEMAATGIDWTFAPALSVVRDDRWGRTYEGFSEDPEIVASYSAAIVEGVQGKYGSKDFMAPGRAVACAKHFLADGGTDQGRDQGDARISEDELIRIHNAGYPPAIDAGVLTVMASFSSWQGIKHHGHKQLLTDVLKGQIGFNGFIVGDWNAHDQVPGCTKFNCPTSLIAGLDMYMAADSWKQLYENTLAQVKDGTIPMARLDDAVRRILRVKVLAGLFEKPAPKDRPGLPGLETLGSPEHRAVGREAVRKSLVLLKNDKGTLPLSPKARVLVAGDGADNIGKQSGGWTISWQGTGNRNDEFPGATSILGGIRDAVADAGGSVEFDVAGRYKTKPDVAIVVFGEEPYAEFQGDVETLEYQPDQKQDLALLKKLKDQGIPVVAVFLSGRPMWVNPELNASDAFVAAWLPGTEGGGVADVLFTDKAGKVQHDFAGKLSYSWPRTAAQTTVNRGDADYNPLFAYGYGLTYKDKSKVGTLPEESGVPAEARQNAGIYFRAGALRLPGRFL
B12: 138 (protein)
chain: B11 chain with N79D, M143A, D146S, Q159E, S198A, A222S, I297M, R487Q
B13: 139 (protein)
chain: B1 chain with A143M, H145R, A162T, F211Y, C219P, S225C
B14: 140 (protein)
chain: B11 chain with N79D, K128N, S198A, A201P, P219V, A222I, I297M, R487Q
B15: 141 (protein)
chain: B1 chain with A143M, H145R, F211Y, C219V, S225C
B16: 142 (protein)
chain: B1 chain with N79D, N128K, H145R, A201P, C219V, K491R
B17: 143 (protein)
chain: B11 chain with K128N, Q159V, A222I, I297M, R487Q
B18: 144 (protein)
chain: B11 chain with M143A, Q159V, A162T, P219V, A222I, I297M, R487Q
B19: 145 (protein)
chain: B11 chain with N79D, K128N, M143A, D146S, Q159E, A222I, I297M, R487Q
B20: 146 (protein)
chain: B1 chain with N79D, A143M, H145R, V159Q, A201P, C219P, S225C, K378R
B21: 147 (protein)
chain: B11 chain with N79D, M143A, Q159V, A173C, A222S, C225S, I297M, R487Q
B22: 148 (protein)
chain: B1 chain with N79D, H145R, V159E, A198S, C219P, S225C
B23: 74 (protein)
chain: B1 chain with N128K, H145R, A201P, C219P, S225C
B24: 149 (protein)
chain: B11 chain with N79D, M143A, D146S, S198A, A201P, A222I, I297M, R487Q
B25: 150 (protein)
chain: B11 chain with N79D, I114V, M143A, Q159V, A162T, A222I, I297M, R487Q
B26: 151 (protein)
chain: B1 chain with A143M, H145R, A162T, A173C, A198S, F211Y, C219P, L514Q
B27: 152 (protein)
chain: B11 chain with N79D, K128N, M143A, S198A, A201P, I297M, R487Q
B28: 153 (protein)
chain: B11 chain with N79D, E92V, Q159V, S198A, A201P, A222S, I297M, R487Q
B29: 75 (protein)
chain: B1 chain with H145R, C219P, I222V
B30: 154 (protein)
chain: B11 chain with K128N, S198A, A201P, F229I, I297M, R487Q
B31: 155 (protein)
chain: B1 chain with N79D, H145R, A198S, C219P, S225C
B32: 156 (protein)
chain: B11 chain with N79D, Q159V, A162T, Y211F, A222S, Q237R, I297M, R487Q
B33: 158 (protein)
chain: B1 chain with N79D, H145R, I166T, A198S, F211Y, C219P, S225C
B34: 76 (protein)
chain: B1 chain with N128K, H145R, C219P
B35: 159 (protein)
chain: B1 chain with N79D, H145R, A162T, A198S, C219P, S225C
B36: 160 (protein)
chain: B11 chain with K128N, M143A, D146S, S198A, A201P, I297M, R487Q
B37: 162 (protein)
chain: B1 chain with H145R, A173C, A201P, F211Y, C219V
B38: 163 (protein)
chain: B1 chain with N79D, N128K, H145R, D146S, A162T, A173C, A198S, F211Y, C219P
B39: 164 (protein)
chain: B1 chain with N79D, N128K, H145R, D146S, C219P, S225C

Experiment: High throughput cellobiose assay: fold improvement in cellobiase activity of CelA variants over a control enzyme (Tables 2A-2D, 3, 5, 6, 7)
Assay type: biochemical
Conditions: 3.3 g/l cellobiose; for Fold improvement over wildtype CelA: 50° C. and pH 6.5, compared to native CelA (SEQ ID NO: 4); for Fold improvement over Control Variant No. 5 from Table 2A: 55° C. and pH 6.0

Row | Molecule | Fold improvement over wildtype CelA | Fold improvement over Control Variant No. 5 from Table 2A
1 | B1 | + (+ = 1.1 to 2.0 fold improvement over native CelA (SEQ ID NO: 4)) | –
2 | B2 | + (+ = 1.1 to 2.0 fold improvement over native CelA (SEQ ID NO: 4)) | –
3 | B3 | + (+ = 1.1 to 2.0 fold improvement over native CelA (SEQ ID NO: 4)) | –
4 | B4 | + (+ = 1.1 to 2.0 fold improvement over native CelA (SEQ ID NO: 4)) | –
5 | B5 | + (+ = 1.1 to 2.0 fold improvement over native CelA (SEQ ID NO: 4)) | –
6 | B6 | + (+ = 1.1 to 2.0 fold improvement over native CelA (SEQ ID NO: 4)) | –
7 | B7 | + (+ = 1.1 to 2.0 fold improvement over native CelA (SEQ ID NO: 4)) | –
8 | B8 | + (+ = 1.1 to 2.0 fold improvement over native CelA (SEQ ID NO: 4)) | –
9 | B9 | + (+ = 1.1 to 2.0 fold improvement over native CelA (SEQ ID NO: 4)) | –
10 | B10 | – | ++ (++ = 1.1 to 6 fold improvement over control Variant No. 2)
11 | B11 | – | ++ (++ = 1.1 to 6 fold improvement over control Variant No. 2)
12 | B12 | – | +++ (+++ = 6 to 13 fold improvement over control Variant No. 2)
13 | B13 | – | +++ (+++ = 6 to 13 fold improvement over control Variant No. 2)
14 | B14 | – | +++ (+++ = 6 to 13 fold improvement over control Variant No. 2)
15 | B15 | – | +++ (+++ = 6 to 13 fold improvement over control Variant No. 2)
16 | B16 | – | +++ (+++ = 6 to 13 fold improvement over control Variant No. 2)
17 | B17 | – | +++ (+++ = 6 to 13 fold improvement over control Variant No. 2)
18 | B18 | – | +++ (+++ = 6 to 13 fold improvement over control Variant No. 2)
19 | B19 | – | +++ (+++ = 6 to 13 fold improvement over control Variant No. 2)
20 | B20 | – | +++ (+++ = 6 to 13 fold improvement over control Variant No. 2)

Row | Molecule | Fold improvement over wildtype CelA | Fold improvement over Control Variant No. 5 from Table 2A
21 | B21 | – | +++ (+++ = 6 to 13 fold improvement over control Variant No. 2)
22 | B22 | – | +++ (+++ = 6 to 13 fold improvement over control Variant No. 2)
23 | B23 | – | ++ (++ = 1.1 to 6 fold improvement over control Variant No. 2)
24 | B24 | – | +++ (+++ = 6 to 13 fold improvement over control Variant No. 2)
25 | B25 | – | +++ (+++ = 6 to 13 fold improvement over control Variant No. 2)
26 | B26 | – | +++ (+++ = 6 to 13 fold improvement over control Variant No. 2)
27 | B27 | – | +++ (+++ = 6 to 13 fold improvement over control Variant No. 2)
28 | B28 | – | ++ (++ = 1.1 to 6 fold improvement over control Variant No. 2)
29 | B29 | – | ++ (++ = 1.1 to 6 fold improvement over control Variant No. 2)
30 | B30 | – | ++ (++ = 1.1 to 6 fold improvement over control Variant No. 2)
31 | B31 | – | +++ (+++ = 6 to 13 fold improvement over control Variant No. 2)
32 | B32 | – | +++ (+++ = 6 to 13 fold improvement over control Variant No. 2)
33 | B33 | – | ++ (++ = 1.1 to 6 fold improvement over control Variant No. 2)
34 | B34 | – | ++ (++ = 1.1 to 6 fold improvement over control Variant No. 2)
35 | B35 | – | +++ (+++ = 6 to 13 fold improvement over control Variant No. 2)
36 | B36 | – | +++ (+++ = 6 to 13 fold improvement over control Variant No. 2)
37 | B37 | – | +++ (+++ = 6 to 13 fold improvement over control Variant No. 2)
38 | B38 | – | +++ (+++ = 6 to 13 fold improvement over control Variant No. 2)
39 | B39 | – | +++ (+++ = 6 to 13 fold improvement over control Variant No. 2)
